Laboratory results reported in the supplement of paper PMC10065799, “High-throughput profiling of sequence recognition by tyrosine kinases and SH2 domains using bacterial peptide display” (eLife, 2023).

What follows are sequences tested against c-Src SH2 (assay: SH2 binding enrichment of the phosphorylated peptide, bacterial display (enrichment ratio); higher = better substrate or ligand; peptides without Tyr show the background).
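For SH2 binding enrichment of the phosphorylated peptide, bacterial display in this document: peptide library displayed on the E. coli surface as eCPX fusions, selected cells deep-sequenced, score is each peptide's frequency after selection divided by its frequency in the input.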
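For phosphorylation enrichment, bacterial display in this document: 11-residue human phosphosite peptides and single-mutation variants displayed on the E. coli surface, counted by deep sequencing, each peptide's frequency after selection divided by its frequency in the unselected input library; frequency after pTyr selection over input frequency; kinase dosed for 20-30% of maximal phosphorylation in three min.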

Sequence | SH2 binding enrichment
SNNYIYKTLGV [FAM83B_Y639] | 0.393
MPAVTYTPAMR [MEGF10_Y895] | 0.477
FRPPFYHRDCM [HGD_Y334_N337D_YF] | 1.02
MANFMYKAGPS [MAML2_Y515_YF] | 0.593
EKKKFYDTKIE [CASP5_Y104_YF] | 0.427
VKMLEYLGKDV [CASP5_Y74] | 0.389
VDEVLYEDSSA [MTHFS_Y197_T202A] | 0.551
RSAGKDDVFLI [MECP2_Y120_Y120D_YF] | 0.481
KRLDGYVLEGR [IGSF9_Y656] | 0.856
AKGMKYLASKK [MET_Y1194] | 0.553
TEALYYTDDPA [ADPRS_Y75_T79P] | 0.797
SHSMRYFSTAV [HLA-C_Y31_D33S] | 0.423
TLQSMYGCDVG [HLA-B_Y123] | 0.559
SRLSAYPALEG [CD5_Y465_H461R] | 0.437
GKGGSYSKAES [HLA-E_Y341_W346S] | 0.389
PRDSGYSYETI [MAP1B_Y1921_S1917R] | 12.7
VLDCHYPEDEV [C1QBP_Y188] | 0.468
VEKGSYSALRA [ABCC2_Y845_L849R] | 0.555
VQEDIYDEFVE [ALDH2_Y332] | 0.437
FDDDDYDTDFV [BLM_Y296] | 0.555
KQVEQYMSFHK [HCN1_Y417] | 0.524
SNMPTYSGHFT [GRIN2A_Y1224] | 0.414

The remaining lines, values ahead:

SH2 binding enrichment | Sequence
3.89 | VEDHYYEGGIG [TKT_Y564]
0.529 | KGPNVYKKTVN [REV3L_Y1156]
0.908 | AQMAMYFWEMG [TRPM4_Y577]
1.98 | TVLEPYTDPFF [ZC3H18_Y367_A368T_YF]
0.446 | ASTDYNKRGDF [PDHA1_Y243_Y243N]
0.479 | FQRLRYIKQLG [SAMHD1_Y146]
2.39 | YQCKHYACIRQ [TIMP3_Y182_S179C]
5.62 | PSELYYSKIGP [SMG1_Y2254]
0.556 | FDDIAYIRKNL [PIK3CA_Y1021_T1025N]
0.586 | HGEAVYSRDCV [XPC_Y676_R671H]
0.53 | GREYIYVDPMQ [PDGFRA_Y574_H570R]

The sequences below were run against Grb2 SH2 (UniProt P62993) in the same assay as above.

Sequence | SH2 binding enrichment
SNNYIYKTLGV [FAM83B_Y639] | 1.01
MPAVTYTPAMR [MEGF10_Y895] | 0.726
FRPPFYHRDCM [HGD_Y334_N337D_YF] | 1.03
MANFMYKAGPS [MAML2_Y515_YF] | 1.03
EKKKFYDTKIE [CASP5_Y104_YF] | 0.636
VKMLEYLGKDV [CASP5_Y74] | 0.662
VDEVLYEDSSA [MTHFS_Y197_T202A] | 0.834
RSAGKDDVFLI [MECP2_Y120_Y120D_YF] | 1.01
KRLDGYVLEGR [IGSF9_Y656] | 0.791
AKGMKYLASKK [MET_Y1194] | 0.975
TEALYYTDDPA [ADPRS_Y75_T79P] | 0.513
SHSMRYFSTAV [HLA-C_Y31_D33S] | 0.752
TLQSMYGCDVG [HLA-B_Y123] | 1.08
SRLSAYPALEG [CD5_Y465_H461R] | 0.899
GKGGSYSKAES [HLA-E_Y341_W346S] | 0.73
PRDSGYSYETI [MAP1B_Y1921_S1917R] | 0.774
VLDCHYPEDEV [C1QBP_Y188] | 1.01
VEKGSYSALRA [ABCC2_Y845_L849R] | 0.823
VQEDIYDEFVE [ALDH2_Y332] | 0.752
FDDDDYDTDFV [BLM_Y296] | 0.803
KQVEQYMSFHK [HCN1_Y417] | 0.782
SNMPTYSGHFT [GRIN2A_Y1224] | 0.68

Now from value to sequence:

SH2 binding enrichment | Sequence
0.883 | VEDHYYEGGIG [TKT_Y564]
0.633 | KGPNVYKKTVN [REV3L_Y1156]
1.49 | AQMAMYFWEMG [TRPM4_Y577]
0.791 | TVLEPYTDPFF [ZC3H18_Y367_A368T_YF]
0.954 | ASTDYNKRGDF [PDHA1_Y243_Y243N]
0.813 | FQRLRYIKQLG [SAMHD1_Y146]
1.74 | YQCKHYACIRQ [TIMP3_Y182_S179C]
0.666 | PSELYYSKIGP [SMG1_Y2254]
0.768 | FDDIAYIRKNL [PIK3CA_Y1021_T1025N]
1.18 | HGEAVYSRDCV [XPC_Y676_R671H]
0.95 | GREYIYVDPMQ [PDGFRA_Y574_H570R]

The sequences below were run against SHP2-C SH2 in the same assay as above.

Sequence | SH2 binding enrichment
SNNYIYKTLGV [FAM83B_Y639] | 0.968
MPAVTYTPAMR [MEGF10_Y895] | 0.825
FRPPFYHRDCM [HGD_Y334_N337D_YF] | 1.06
MANFMYKAGPS [MAML2_Y515_YF] | 0.838
EKKKFYDTKIE [CASP5_Y104_YF] | 0.437
VKMLEYLGKDV [CASP5_Y74] | 0.77
VDEVLYEDSSA [MTHFS_Y197_T202A] | 0.979
RSAGKDDVFLI [MECP2_Y120_Y120D_YF] | 0.861
KRLDGYVLEGR [IGSF9_Y656] | 0.518
AKGMKYLASKK [MET_Y1194] | 0.557
TEALYYTDDPA [ADPRS_Y75_T79P] | 0.48
SHSMRYFSTAV [HLA-C_Y31_D33S] | 0.64
TLQSMYGCDVG [HLA-B_Y123] | 0.812
SRLSAYPALEG [CD5_Y465_H461R] | 0.69
GKGGSYSKAES [HLA-E_Y341_W346S] | 0.499
PRDSGYSYETI [MAP1B_Y1921_S1917R] | 0.564
VLDCHYPEDEV [C1QBP_Y188] | 0.929
VEKGSYSALRA [ABCC2_Y845_L849R] | 1.04
VQEDIYDEFVE [ALDH2_Y332] | 0.408
FDDDDYDTDFV [BLM_Y296] | 0.702
KQVEQYMSFHK [HCN1_Y417] | 0.583
SNMPTYSGHFT [GRIN2A_Y1224] | 0.88

Results, then the sequence that gave them:

SH2 binding enrichment | Sequence
0.833 | VEDHYYEGGIG [TKT_Y564]
0.606 | KGPNVYKKTVN [REV3L_Y1156]
1.43 | AQMAMYFWEMG [TRPM4_Y577]
0.649 | TVLEPYTDPFF [ZC3H18_Y367_A368T_YF]
0.512 | ASTDYNKRGDF [PDHA1_Y243_Y243N]
0.679 | FQRLRYIKQLG [SAMHD1_Y146]
4.01 | YQCKHYACIRQ [TIMP3_Y182_S179C]
2.26 | PSELYYSKIGP [SMG1_Y2254]
0.759 | FDDIAYIRKNL [PIK3CA_Y1021_T1025N]
0.716 | HGEAVYSRDCV [XPC_Y676_R671H]
0.718 | GREYIYVDPMQ [PDGFRA_Y574_H570R]

These sequences were tested against Jak2 (UniProt O60674) (assay: phosphorylation enrichment, bacterial display (enrichment ratio); higher = better substrate or ligand; peptides without Tyr show the background).
Chain of Jak2 (O60674 whole entry, looked up): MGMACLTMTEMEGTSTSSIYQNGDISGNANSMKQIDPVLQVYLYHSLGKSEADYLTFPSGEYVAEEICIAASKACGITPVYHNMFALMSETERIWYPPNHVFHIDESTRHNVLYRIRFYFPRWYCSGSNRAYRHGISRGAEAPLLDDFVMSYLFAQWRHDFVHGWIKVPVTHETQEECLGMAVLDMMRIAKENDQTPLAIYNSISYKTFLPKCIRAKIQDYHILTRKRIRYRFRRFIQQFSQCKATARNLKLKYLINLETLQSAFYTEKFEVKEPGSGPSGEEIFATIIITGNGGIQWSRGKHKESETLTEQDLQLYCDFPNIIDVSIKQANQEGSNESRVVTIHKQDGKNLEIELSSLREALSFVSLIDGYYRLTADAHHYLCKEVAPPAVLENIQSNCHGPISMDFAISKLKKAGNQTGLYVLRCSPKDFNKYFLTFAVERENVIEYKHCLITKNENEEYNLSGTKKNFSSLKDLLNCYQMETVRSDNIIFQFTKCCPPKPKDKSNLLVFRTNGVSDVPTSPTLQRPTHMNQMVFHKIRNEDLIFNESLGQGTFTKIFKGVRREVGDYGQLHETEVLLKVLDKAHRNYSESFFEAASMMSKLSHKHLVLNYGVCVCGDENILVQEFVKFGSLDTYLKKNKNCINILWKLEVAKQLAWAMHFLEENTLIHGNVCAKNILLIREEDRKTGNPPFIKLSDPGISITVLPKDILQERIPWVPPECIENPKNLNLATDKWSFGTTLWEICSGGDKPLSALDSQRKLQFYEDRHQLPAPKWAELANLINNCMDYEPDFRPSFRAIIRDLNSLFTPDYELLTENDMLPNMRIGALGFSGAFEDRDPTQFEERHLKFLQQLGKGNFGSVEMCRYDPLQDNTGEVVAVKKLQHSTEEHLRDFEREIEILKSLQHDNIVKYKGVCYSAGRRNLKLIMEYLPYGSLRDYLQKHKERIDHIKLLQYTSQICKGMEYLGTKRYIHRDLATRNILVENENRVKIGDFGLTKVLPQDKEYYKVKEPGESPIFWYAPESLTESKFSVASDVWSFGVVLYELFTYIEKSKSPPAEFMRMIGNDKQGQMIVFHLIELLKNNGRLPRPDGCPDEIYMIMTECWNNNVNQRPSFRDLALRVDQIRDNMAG

Sequence | phosphorylation enrichment
VEDHYYEGGIG [TKT_Y564] | 1.05
SNNYIYKTLGV [FAM83B_Y639] | 0.46
KGPNVYKKTVN [REV3L_Y1156] | 0.5
AQMAMYFWEMG [TRPM4_Y577] | 1.37
MPAVTYTPAMR [MEGF10_Y895] | 0.743
FRPPFYHRDCM [HGD_Y334_N337D_YF] | 0.942
MANFMYKAGPS [MAML2_Y515_YF] | 0.739
EKKKFYDTKIE [CASP5_Y104_YF] | 0.883
VKMLEYLGKDV [CASP5_Y74] | 0.591
VDEVLYEDSSA [MTHFS_Y197_T202A] | 1.29
TVLEPYTDPFF [ZC3H18_Y367_A368T_YF] | 1.09
RSAGKDDVFLI [MECP2_Y120_Y120D_YF] | 0.706
KRLDGYVLEGR [IGSF9_Y656] | 0.426
AKGMKYLASKK [MET_Y1194] | 0.489
TEALYYTDDPA [ADPRS_Y75_T79P] | 1.06
SHSMRYFSTAV [HLA-C_Y31_D33S] | 0.625
ASTDYNKRGDF [PDHA1_Y243_Y243N] | 0.468

Sequence | phosphorylation enrichment
TLQSMYGCDVG [HLA-B_Y123] | 0.843
SRLSAYPALEG [CD5_Y465_H461R] | 0.674
FQRLRYIKQLG [SAMHD1_Y146] | 0.652
GKGGSYSKAES [HLA-E_Y341_W346S] | 0.386
PRDSGYSYETI [MAP1B_Y1921_S1917R] | 0.781
VLDCHYPEDEV [C1QBP_Y188] | 1.3
YQCKHYACIRQ [TIMP3_Y182_S179C] | 0.55
PSELYYSKIGP [SMG1_Y2254] | 4.02
VEKGSYSALRA [ABCC2_Y845_L849R] | 0.551
VQEDIYDEFVE [ALDH2_Y332] | 1.34
FDDDDYDTDFV [BLM_Y296] | 0.958
KQVEQYMSFHK [HCN1_Y417] | 0.687
FDDIAYIRKNL [PIK3CA_Y1021_T1025N] | 0.494
HGEAVYSRDCV [XPC_Y676_R671H] | 0.786
GREYIYVDPMQ [PDGFRA_Y574_H570R] | 1.17
SNMPTYSGHFT [GRIN2A_Y1224] | 0.653
